# Assay: soluble on expression in E. coli; label from the status in PepcDB or PDB records
row,Sequence,soluble on expression in E. coli
1,MKFRQKHEDFIVNEILEYELNDYGNYFLYKLQKNGIENLKAISYLSKNFEVPTKEIGYCGLKDRHAITTQYVSIPKEYGKLSLDEDNLKLEYVGTIEKPLKIGRLYGNRFEIIARAVDKDEFLKIADNIRNLSSGAPNYYDDQRFGSVFNGKFIAKEILKGNYEEVVKILLTSYTKSEKKQLKDLKRFIAKNWGNWDECLEYIDKKQIRSKMFRNMVKSLTYENDFKKAFKYVDNRLKELFISAYQSYLWNECLKEFLKEVIPKENRIYVDYSCGTFLFYENIEEELFDKLKEMDFPTIVSDVEYTDPEKRIIKAILKKERIKISDFEKLDFGKLKYTKRPIISIPEDVNTGKFKSDELNSKKYKIDLEFSLKKGSYATIILKRVFNILLEHHHHHH,soluble
2,MGSDKIHHHHHHMLAEERQQMIAHYVDEHQICRVTELCRLTSTSESTIRRDLSEMEDRGLLKRVHGGAQSLQTFGQDVAQQIRFNLNKDDKLAIARLAARKVHPHDYLFLDAGTTIYEMVPFLKEISGLHVVTNGLETALALTDAGIDCCLLGGHVKRQTHAAIGATTVSRLQELNFNAAFIGANALSPAGFLTTPDTEEAAVKRTAIQQSQQAFVLIDRSKFNAVTFAEFAKTDQVTIISRLEAGDREKLPVNIQLEEAE,not soluble
3,MTLSKQLKTYITERFKLNYQDTWSCETVDAVAEDVLPEKYIKNSPLEHKILNTFTYYNDELHEISIYPFLCYLDKELIAIGYLDNFDLDFIFLNDTHQIIIDERYLLQKGGELEHHHHHH,not soluble
4,MASCQKSIFLGRLTTFTDSNISPTSLIFSSKMSSRTLRSSSSSNAISTKTQPKTEEAPLIPVTKGPVIRMTSNMADKAQNDHSMWPSTSKFESIWGNVLGERVNKSTIAAIREGMKIENKVTCGCRPGQDCSTNPACRCFQTASRLREHFGSDILTRGKPVKTVDTMYWDRPMFACSGSCGCKGQCNLNALQDICEDPAKKFKITRTDGKGFCVYSARVIKKGSPVLEFSGEITDYLAIKSNADIEQYSIMLYNNETKLCDFFSKEENLSSKYKKILWSAYRSKAWINPLNRGNCARFFSHGCKANMELGRVFQGGFSPADMKIVLFAKEIIKPGTELTFNYGPSYKEIFLGNKCLCEACKKEAVKKLENAVKRILKNSRDPSEPPSKKKSVKKLDGKENVR,not soluble
5,MPPAVPAAAATARQSASGRERNFKDKDKPESVRNSNIVAAKAVADAVRTSLGPRGMDKMIQSGNGDVTITNDGATILNQMSVIHPTAKMLVELSKAQDIEAGDGTTTVVVMAGALLDAAQNLLSKGIHPTTISESFQSAAAEAEKILDEMSSPVDLSNDALLNKMATTSLNSKVVSQHSWLLAPMAVNAVKKIINSENDSNVNLKMIKIIKKMGDTVEESELIEGALIDQKTMGRGAPTRIEKAKIGLIQFQISPPKTDMENQVIITDYAQMDRALKEERQYLLEICKQIKAAGCNVLLIQKSILRDAVNELALHFLAKMKIMCIKDIEREDIEFYSRILGCRPVASVDHFNADALGYADLVEEIPTGGDGKVIKVTGVQNPGHAVSILLRGSNKLVLEEADRSIHDALCVIRCLVKKKALLPGGGAPEMEIAVKLRNLAQTQHGATQYCWRAFADALELIPYTLAENAGLSPIHTVTELRNNHANGNSSYGVNVRKGYVTDMVEEDVVQPLLVTASAIKQASECVRSILKIDDIVMAVR,not soluble
6,MQAVSVDETKNTVVLRAEHKNEEGRKSVDKFEVKTRNPETIKSVERKLMEKGVQRMDRHPSDGIPLRRPPSKSGHGGKYTWEGPDRMEDYEMQPDPPAMDEGDPNYDEEQVKKSGDDVAVELVKGEVEVAKEAPAGVARVEVDPRLVGR,soluble
7,MSQNHVIELANTLKQRPIVCDYTGGRFRLTNEGLTYIGIDRDGTPLPPRWICAPLHIVAKTRDAQSGEWGRLLEWQDDDGITHQWAMPLALLQGDASDVRRELARLGLSISPHRTARDLLASYLQVFPVDARARCVDKLGWHGDVFVTASQCIGQSTEKIVFQNTNAIEPAMSIKGSVDKWRDSIGRLASGNSRLVFAISVALAPVLAKIVGEDSGGFHFRGASSSGKSTALSLAASVWGNPQSYCRLWRSTTNGLEGLAALHNDGLLILDELSQMDPREAGEAAYLLANGQGKTRASRTGTVRQSSRWSLFFLSAGEESLTALMAKSGQRINAGQEIRLADIEADAGCQMGIFETIHDQLSPASMALSLKKYSSGYHGAIGRAWLNQVVANRQTISRFITDTIQSFVDIVIQPDATGQIIRVARRFALVAAAGELASQFGLTGWKKGESFHAAKTCFIAWQDAFGVDGHREDRAIMAQVRAFFESHGASRFDNVNSPNNDKILNRAGFYHTDGEGFRIYMVLTETYKNELCKGFDQRTVTRVLLQAGWLKPASDGKASHKPRIKGVGTPRLYVFTGKIWGGELEHHHHHH,soluble
8,KVKELTILYRGSTAPTLASGLTPFHKDSLDVWTDWGVNDIPTAIQITNGGGSTVTPQLKTSAETLKQTMKLYPNAQIYVYGHSLGSMNAQYAIADLDKKDIKRISGGFFYQGPNIYSNLTPKQQDTVKAINALDRLFNFIDRKDYVAIGYGTGDPTIGHLIEVESKKAGLV,not soluble
9,MSLGDSRGRVFSWSVSDQPGRSAADHWVKDEGGDSCSGCSVRFSLTERRHHCRNCGQLFCQKCSRFQSEIKRLKISSPVRVCQNCYYSLQHERGAEDGPRNCEGHHHHHH,soluble
10,MRINKPFSDDSNTVVFVSSKTYGVKEEAAHNPNVEFGVVLPTDFPAFNRALVQFLKRKKTKLNINLDSLIELYKKNENSGCFHTAIKTVITSVTFCETTPFTMKTKPEKNVEVAVQCAVEYHNLVKEYET,not soluble
11,MGSDKIHHHHHHMNEKEYEERLRIETIDIQHLYNAFSHYNRYEPTPYAALEELCAVYPFDYTDTVIDFGCGKGRLNFYLHDRFDCSVIGVEMNGQFYEDALMNQVTYMKKMKRRRGSIRFEHTYAEAYPIPDDVTKCYFFNPFSVQIFMKVVDQILASVERHPRPVDLILYYPADEYRYYLENQTIFEQVEEVRLKELFEKNHDERFVIYRVNLSQEVPKRV,not soluble
12,MSSRAVSLLSRVISQNRGLASLRETVGERDASLLYEPKFQDSREFPEYNTINVRIQGHDFGSLEKYQAYIHKTAKRFGFTVVDSYAVAAQTQKAITYKPYSTVSESEIDMSTYDRVVRLSDVAAPRFSLFSQIIRAHIPIGVTMTVKEHEKVDEDSRYIPDLLLKQKQEELKALDDPNVRRNLGWE,not soluble
13,MPCAETFGSEYFLAQGSPVNSTATPPEPLPPFLQPGDRVLLFDGVCKLCNASVRFVIRHDSQRRIKLASVQSPQGQALLAWFGLPTEQFDSVVLIEEGRLSQRSDAFIRLMAQLPAPWRWLRLLRGVPRPLRDWVYDLIARNRYRLFGRLDVCLLPSPDHQGRFLDDPSLEHHHHHH,not soluble
14,KGSTFIKAQDKYEVNILYLISHALVETGNGQSDLSKGIKEGDHHYYNFFGIGAFDEDAVKTGKSFAKQKKWTTPEKAIMGGAWFVRYHYFKNNQLSLYQMRWNPQNPGQHQYASDIQWANNIADLMEKYYDKYGIKKDHIRKKYYK,not soluble
15,MAEEQQNSDQSNGGNVIPTPEEVATFLHKTVEEGGWEKCWEEEITPWDQGRATPLIVHLVDTSSLPLGRALVPGCGGGHDVVAMASPERFVVGLDISESALAKANETYGSSPKAEYFSFVKEDVFTWRPTELFDLIFDYVFFCAIEPEMRPAWAKSMYELLKPDGELITLMYPITDHVGGPPYKVDVSTFEEVLVPIGFKAVSVEENPHAIPTRKGKEKLGRWKKINLEHHHHHH,soluble
16,MQNHVISLASAAERRAHIAATFGSRGIPFQFFDALMPSERLEQAMAELVPGLSAHPYLSGVEKACFMSHAVLWKQALDEGLPYIAVFEDDVLLGKDAEKFLAEDTWLEERFDKDSAFIVRLETMFAKVIVRPDKVLNYENRSFPLLESEHCGTAGYIISREAMRFFLDRFAVLPPERIKAVDLMMFTYFFDKEGMPVYQVSPALCTQELHYAKFLSQNSMLGSDLEKDREQGRRHRRSLKVMFDLKRALGKFGREKKKRMERQRQAELEKVYGRRVILFKLEHHHHHH,soluble
17,RGRLRIFFGFAAGVGKTYGMLTEAHELLMMGKHVVVGYIEPHDRPDTNRLLEGLPQIPPKNIFYKQMVLTEPDIDQIIQQKPEIVLIDELAHSNAEGSRNRKRYQDIDELLNAGIDVFTTVNVQHIESLNDIVEEVTGIEVKETVPDTFLRQATIRVIDVEPDELIERLEQGKIYANENAKRALKNFFIPQKLDQLRGLAIQRASDHINRISGKTIG,not soluble
